In patent US20120052007A1, “PERIPHERAL BLOOD SPARC BINDING ANTIBODIES AND USES THEREOF” (ABRAXIS BIOSCIENCE, LLC, priority 2010, published 2012):
Entries after “also recorded” stand apart in the source; their conditions may differ.

Columns and labels:
HT29 (colon) = conditions: for Tumor growth inhibition (TGI): HT29 xenograft, versus control group at euthanasia of control animals
Description: Female and male athymic NCr-nu mice between 5 and 6 weeks of age weighing approximately 20 g were purchased from Harlan, Inc. (Madison, Wis., USA). Human cancer cells HT29 (colon), PC3 (prostate), and MDA-MB-231 (breast) were propagated in cell culture and implanted subcutaneously at one million cells per flank of female (for MDA-MB-231 and HT29) or male (for PC3 prostate tumor) nude mice and allowed to grow to approximately 60-100 mm^3 before treatment was initiated. Treatments included 5-fluorouracil (5FU), docetaxel (Taxotere®), albumin-bound paclitaxel (nab-paclitaxel), nab-paclitaxel plus suntinib malate (Sutent®), or nab-paclitaxel plus bevacizumab (Avastin®) with or without exogenously administered SPARC). Control animals for each xenograft were administered PBS. The longest (length) and shortest (width) tumor diameters (millimeter) and tumor depth were measured twice weekly. The tumor volume was calculated with the formula: tumor volume (mm3)=width×length×depth. Tumor growth inhibition (TGI) was defined as the percentage of tumor volume reduction compared with the control group at the time of euthanasia for the control animals. Tumor doubling time was defined as the time required for the tumor volume to double […]. Animal weights were measured twice weekly. Statistical analysis was performed using the Prism program (GraphPad, San Diego, Calif., USA). Analysis of variance (ANOVA) statistic was used to compare tumor growth curves.

SPARC [1] = target: T1, SPARC (Homo sapiens, UniProt P09486); assay: ELISA comparing Imm11, Imm12, Imm13, Imm14 binding to human SPARC; conditions: ELISA (FIG. 13)
T1 sequence (P09486 18-303): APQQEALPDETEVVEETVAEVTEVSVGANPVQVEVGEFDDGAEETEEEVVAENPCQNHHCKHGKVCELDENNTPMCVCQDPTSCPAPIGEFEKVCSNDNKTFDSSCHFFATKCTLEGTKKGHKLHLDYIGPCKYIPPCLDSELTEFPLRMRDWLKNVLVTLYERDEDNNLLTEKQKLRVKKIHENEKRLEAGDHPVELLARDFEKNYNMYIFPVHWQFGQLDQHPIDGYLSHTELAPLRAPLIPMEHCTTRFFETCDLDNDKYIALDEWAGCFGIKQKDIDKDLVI
Description: An ELISA assay was also performed to directly compare the SPARC binding capabilities of selected mouse-derived anti human SPARC antibodies, Imm11 and Imm12, to the fully human Imm13 and Imm14, the results of which are presented in FIG. 13.

[2] = target: T2, recombinant human SPARC (Bio1-SPARC) (Homo sapiens, UniProt P09486); assay: ELISA binding to recombinant human SPARC (Bio1-SPARC); conditions: for binding to Bio1-SPARC compared with HTI-SPARC (ELISA): Bio1-SPARC versus human platelet SPARC (FIG. 9)
T2 sequence (P09486 18-303): T1 sequence (P09486 18-303)
Description: The ability of Imm1 through Imm12 (the mouse-derived anti-human SPARC antibodies) to bind recombinant human SPARC (Bio 1-SPARC) was characterized by multiple ELISA assays performed at various stages of purification. FIG. 7 presents the results of an ELISA assay performed on a serial dilution (1:1, 1:10, and 1:100) of antibody supernatants prior to purification. […] Another ELISA assay was performed with the purified antibodies (FIG. 8) at concentrations of 0.04 μg/mL, 0.2 μg/mL, 1 μg/mL, and 5 μg/mL. […] An additional ELISA was performed to compare the binding of the mouse derived Immseries antibodies to two different varieties of SPARC: Bio1-SPARC, and human platelet SPARC (HTI-SPARC) (FIG. 9).
ELISA assays were also used to characterize the SPARC binding of the fully human SPARC binding antibodies, Imm13 and Imm14. […] Surface plasmon resonance binding assays, performed on the Biacore 3000® (GE/Biacore International AB, Uppsala, Sweden), tested the binding of Fab 16 to both varieties of SPARC immobilized on a sensorchip (FIGS. 11 and 12).

denatured human SPARC = target: T3, denatured human SPARC (Homo sapiens, UniProt P09486); assay: Western blot against denatured SPARC; format: binding; conditions: SDS polyacrylamide gel
T3 sequence (P09486 18-303): T1 sequence (P09486 18-303)
Description: Western blotting was used to determine whether the Imm series antibodies bind to linear or conformational epitopes. In this analysis, SPARC protein was run on a polyacrylamide gel in the presence of SDS. Accordingly, the SPARC protein on the gel was in its denatured form. The Imm series antibodies were used as primary antibodies and were then probed with goat anti-mouse IgG. BSA was used as a negative control.

[3] = tested on: LL/2 (Lewis Lung Carcinoma); assay: LL/2 Lewis Lung Carcinoma survival / lung metastasis model; format: in vivo, mice; conditions: 200 μg/mouse i.p. twice weekly for 4 weeks, versus mouse control IgG
Description: C57BL male mice (approx. 6 weeks old) were weighed, and then injected intravenously with approximately 1×10^6 cells (approximately 0.1 mL) of LL/2 (Lewis Lung Carcinoma) with 25-gauge needle. A minimum of 10 animals was used per group. Twice weekly for 4 weeks, each animal in all groups received 200 μg/mouse of a test antibody or mouse IgG. These test articles/antibodies were dosed via intra-abdominal injection into the peritoneal cavity with a 25-27 gauge needle. The first dose was administered within 30 minutes of tumor cell injection.
Animals were weighed prior to tumor cell injection, and twice weekly prior to dosing. All animals were examined twice daily for mortality/morbidity. At the end of the experiment, the mice were killed, and primary tumors and lungs were removed, fixed, and embedded. Euthanized animals and any animals found dead prior to rigor mortis were necropsied. Plasma and lungs from all animals were collected and weighed at termination. Lungs were infused with and then immersed in 10% Neutral buffered formalin. Tissues were stored for additional gross and histopathologic analysis.
Animals were administered either mHTI, Imm12, or Imm14. A negative control group was administered mIgG. The antibodies were formulated in PBS and were administered in at dose of 200 μg/mouse, twice weekly, for four weeks. The survival of the animals was then recorded over […].

mouse SPARC = target: T4, mouse SPARC (Mus musculus, UniProt P07214); assay: ELISA binding to murine SPARC (FIG. 16); conditions: ELISA (FIG. 16)
T4 sequence (P07214 18-302): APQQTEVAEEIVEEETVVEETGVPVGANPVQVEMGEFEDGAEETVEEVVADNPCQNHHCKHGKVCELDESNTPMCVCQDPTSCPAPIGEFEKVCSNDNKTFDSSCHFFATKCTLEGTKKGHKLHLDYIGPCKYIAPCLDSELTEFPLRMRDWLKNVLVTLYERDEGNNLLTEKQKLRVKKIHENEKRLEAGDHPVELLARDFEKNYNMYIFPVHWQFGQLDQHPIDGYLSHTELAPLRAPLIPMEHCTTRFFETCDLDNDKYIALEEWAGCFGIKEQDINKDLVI

SPARC [4] = target: T1, SPARC; assay: ELISA binding to human SPARC (FIG. 16); conditions: ELISA (FIG. 16)
[5] = tested on: recombinant human SPARC protein; assay: Tube Formation Assay (AngioKit) with SPARC and SPARC binding antibodies; format: cell-based; conditions: 300 μg/mL antibody with 10 μg/mL recombinant human SPARC
Description: This assay was performed using the TCS Cellworks human AngioKit model kit (TCS-ZHA-1000, TCS Cell Works, Buckingham, UK) as described in Example 10 above. The media contained 10 μg/mL recombinant human SPARC protein. The media also contained 300 μg/mL of one of the above prepared mouse SPARC binding monoclonal antibodies (Imm12, Imm14, mHTI), or a control (mouse IgG).
To examine the effect of SPARC on tubule formation, and interference with that function by SPARC binding monoclonal antibodies, the number of tubules formed and their length was evaluated by light microscopy.

HT29 colon xenografts = assay: Tumor localization of Alexa 680 labeled antibodies in HT29 xenografts; format: in vivo, mice; conditions: 200 ug/mouse i.v. day 1, Alexa 680 label, followed 36 days
Description: Nude mice implanted with subcutaneous HT29 colon xenografts were treated with Imm series antibodies labeled with labeled with Alexa 680 fluorescent dye at dose of 200 ug/mouse. The labeled Imm antibodies were formulated in saline and administered intravenously on day 1. The fluorescent signal was followed in these mice over the course of 36 days.

[6] = antibody supernatants prior to purification, dilutions 1:1, 1:10, 1:100 (FIG. 7)
[7] = purified antibodies at 0.04, 0.2, 1 and 5 μg/mL (FIG. 8)

## O=c1[nH]cc(F)c(=O)[nH]1 [Imm 5-FU, 5-fluorouracil]
HT29 (colon)
  Tumor growth inhibition (TGI): 89.8%
HT29 (colon); mouse, in vivo
  body weight / tolerability: without decrease in body weight

## bevacizumab: anti-VEGF antibody, Avastin
HT29 (colon)
  Tumor growth inhibition (TGI): 75%

B1: Imm13: fully human anti-human SPARC antibody created from Fab6, IgG1 (κ) (antibody, V domains shown)
VH: QVQLVQSGGGLVQPGGSLRLSCAASGFTVSSNYMSWVRQAPGKGLEWVSVIYSGGSTYYADSVKGRFTISRDNSKNTLYLQMNSLRAEDTAVYYCARGIAAAGLDYWGQGTLVTVSP
VL: ELVLTQPPSVSAAPGQKVTISCSGSSSNIGNNYVYWYQQLPGTAPKLLIYRNNQRPSGVPDRFSGSKSGTSASLAISGLRSEDEADYYCAAWDDSLSGWVFGGGTKLTVL
SPARC [1]
  affinity for SPARC relative to mouse derived Imm11 and Imm12: higher affinity

B2: Imm12: mouse-derived anti-human SPARC antibody from hybridoma, IgG1 (κ), SEQ ID NOs 7 and 14 (antibody, V domains shown)
VH: KASGYTFTKYGMNWVKQAPGKGLQWMGWINTNTGEPTYAEEFKGRFAFSLETSASTAYLQINNLENADSATYFCTRGSSYFDYWGQGTTVTV
VL: GQRATISYRASKSVSTSGYSYMHWNQQKPGQPPRLLIYLVSNLESGVPARFSGSGSGTDFTLNIHPVEEEDAATYYCQHIRELTRSVEAPSS
[2]
  binding to Bio1-SPARC compared with HTI-SPARC (ELISA): bind both varieties of human SPARC equally well
[2]; [6]
  Bio1-SPARC binding (ELISA): highest Bio1-SPARC binding; also recorded: highest binding overall
[2]; [7]
  Bio1-SPARC binding (ELISA): highest Bio1-SPARC binding
Denatured human SPARC
  binding to denatured SPARC: binding
[3]
  inhibition of lung LL/2 metastasis: did not inhibit lung LL/2 metastasis
Mouse SPARC
  binding to mouse SPARC: not mouse SPARC
SPARC [4]
  binding to human SPARC: specifically bind to human SPARC
[5]
  effect on SPARC-induced tubule formation: only very slight formation of very short tubules
HT29 colon xenografts
  localization at the tumor site: do not localize at the tumor site

B3: Imm10: mouse-derived anti-human SPARC antibody from hybridoma, IgG1 (κ) (antibody, V domains shown)
VH: AASGFTFSYYGMSWVRQTPDKRLEWVATISSGGSYTYYPDSVKGRFTISRDNSENTLYLQMNSLKSEDTAMYFCARRGSSGDYYGMDYWGQG
VL: GEKVTMSCKSSQSLLYSNSQKNYLAWYQQKPGQSPKLLIYWASTRESGVPPRFTGSGSGTDFSLTISSVKAEDLAVYYCQQYYSFPRTFGGG
[2]; [6]
  Bio1-SPARC binding (ELISA): highest Bio1-SPARC binding

B4: Imm2: mouse-derived anti-human SPARC antibody from hybridoma, IgG1, 2b (κ) (antibody, V domains shown)
VH: TVTGYSITSDHAWSWIRQFPGNKLEWMGYISYSGSTSYNPSLKSRVSVTRDTSKNHFFLQLNSVTTEDTATYYCARAAFIGGWFAYWGQGTT
VL: GEKVTITCSASSSVSYMHWFQQKPGTSPKLWIYSTPNLASGVPARFSGSGSGTSYSLTISRMEAEDAATYYCQQRSSYPLTFGGGTKLELKQ
HT29 colon xenografts
  localization at the tumor site: localizes well

B5: Imm6: mouse-derived anti-human SPARC antibody from hybridoma, IgG1 (κ) (antibody, V domains shown)
VH: TVTGYSITSDSAWNWIRQFPGNKLEWMGHISYSGSTSYNPSLKSRISITRDTSKDQFFLQLNSVTTEDTATYYCARGSYYGNFGFTYWGQGT
VL: GETVTITCQASENIASDLAWYQKEGRSPQLLVYEARNLADGVPSRFSGSGSDTLYSLNIHSLQSEDVARYYCQHYYGTPWTFGGGTKPRAN
[2]; [6]
  Bio1-SPARC binding (ELISA): highest Bio1-SPARC binding

B6: Imm4: mouse-derived anti-human SPARC antibody from hybridoma, IgG1 (κ) (antibody, V domains shown)
VH: AASGFAFSSYDMSWVRQTPEKRLEWVAYITSGGGSTYYPDTVKGRFTISRDNAKNTLYLQMSSLKSEDTAMYYCAGSRSWFAYWGQGTTVTV
VL: GEGVSFSCRASQSIGTGIHWYQRRTNGSPRLLIKYASESISGIPSRFSGSGSGTDFTLTINSVESEDIADYYCQQSYSWPLTFGAGTKLELK
[2]
  binding to Bio1-SPARC compared with HTI-SPARC (ELISA): bind Bio1-SPARC significantly better than HTI-SPARC
[2]; [6]
  Bio1-SPARC binding (ELISA): highest Bio1-SPARC binding
[2]; [7]
  Bio1-SPARC binding (ELISA): highest Bio1-SPARC binding
